Experimental data from the domain aggregation screens of Martell et al. (2025).

Assay: soluble fraction after stress (log2 fold change); higher = more stays soluble; pooled small domains, quantitative proteomics
Details: stress: 50 degC
Summary of the method: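 The measure of aggregation propensity here is the base-two logarithm of the fold change in the soluble amount of each protein after stress. A higher value means more of that protein stays in solution. Stress was applied at 50°C to pooled libraries of small protein domains, read out by high-throughput quantitative proteomics.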

Row | Sequence | soluble fraction (log2)
1 | HMTKQMELLAQGAAKLSVDLNQRQLDQLQTYYRELVDWNQRMNLTAITQYEEVQVKHFLDSL | -0.0986
2 | HMKELASKYEISEYMKFLIENLDKSNFFYPIEKRESMINNIFSIYSKADLSKKELNMLWGMLKKLR | -2.1
3 | HMYKSSRASKSEVNKFLKFIIQSLDKRGFLQPGHKRQSMIRNIENIFYRTNLSDQEIRILLGIFSTLNK | -0.62
4 | HMNPSRPASKEELLGLFEHLERALDAVTFFRPAEKKPVVVQTLRAMLTKASFTEQDIRTMRGVIAALEN | -1.5
5 | HMANMTAKQINMFGDKLSRDKDFQSYYIAKSGDSREQYAQDIKGKLLDPFYVNAWMPYLEKIGFVPS | 0.00797
6 | HMFSSVSVPAELSNQRFDKVVAELTPDLSRSKIKQLILLGKVLLNGEVTPPKQKVETGDEIEIFYTRQIE | -0.63
7 | HMSDQIQQIAERIAGLRDIAGYSVEELARELGISAEEYKRYESGEVDIPIGFLYKLANKYNVELTAILT | -0.0876
8 | HMPSGRIRWFDAKKGYGFIAGDDGKDVFLPQTALPQGVRNPRKGAKVEYSVIEGNRGQVAMGVTMV | -0.0368
9 | HMSVTIDAGGKVYLQESEIADDQLVPRLVAISNNGYDKPIYLRADKTVGYGRVAEVMSLLNAAGFTKLVLV | -0.0288
10 | HMGLVDSLEPLLRRVYEALPQRRSMTTERLAVAAGLDEESVKVALARLQLSAFVGVDERGWHRSL | -1.11
11 | HMGQVSDETGLARVVDALLAAHPDEVAKYRAGKTSLLGWFMGQVMKETRGQANPDLARALVLERLE | -0.101
12 | HMRDSYEVEGRIASVSPAAGTFVVAGVTVDYTGARFVGGTVAQLAPGVKVEVEGRRLANGTLQAREIEFD | 0.00935
13 | HMKASEMKKGQTIKIDGVLYVIVDFQHVKLSKGGAVYQTKLRNLAAGGIRDIRIRAEEVLEDA | -0.311
14 | HMPNYIDAISALLTLKGVGDRKHASTMANILNLQYNSAKQKLDGKRGITLDEVKKVFQYFNEPF | -1.1
15 | HMYTVRDGDTVFGILNRFGVSLDELLSLNPELSNGLKAGMVLKIK | -0.491
16 | HMSATPQRMSIINELDSARKNLSAYDLRDSLKDKGHSFNISTIYRVLSFWIDVGVVHKMDSSNTYL | 0.147
17 | HMNSVKSPMPGTILGLKVSVGDTVKVGDELLVLESMKMENMINSPIDGTVSKILISEGDSVQHGQELII | 0.215
18 | HMKPDWLSDGRLIPDEVMSHLRKIAVHAVEEMGYSPEDVIKILGLSRNTIYDWLKRFREHGYEGLDTKK | -0.258
19 | HMGDEHYDTISAFIKSVRGSDPDAALYWLAKMILAGEDPRFILRRLIVLSGEDIGLADPQGI | -0.653
20 | HMTANTQVENIRLELQRYMDEHGISQVTVARGIGKTHPVISQFLNNKYPGDVEEVARAIESWLTKQHEKAA | -0.0876
21 | HMHPVEPDDPDQHILFQHLRGQDQVHIDALIRLSGWTADKVSSTLLFMELQGLVKQLPGMYYALE | -0.0844
22 | HMRDSYTFEDIEKLKDSYLQDSEKALEKLISIYEDTNQSLAIRTAALDIITDSQDPTFKLALEKIIS | 0.0263
23 | HMDGVNRDKIEYRLDDLYYLKGSDAPYTGKVFEEWSGQQRVETNYIDGKLDGLSESWHENGQKASEVNY | 0.345
24 | HMIKILGSAYRHGLDDDDILRAWNYHIQEFFEGEDPEKIVRLGFDTHGRLLEIGGEIYPGGGEKIFHAM | -0.729
25 | HMGEKTLSEKVYDRLKELIMDGELERGTKITETSIAKMFDVSPTPVREAFRKLASDGLIEVASWKGVIVKG | -0.0886
26 | HMAMDVKEVLLPGVGLRYEFDNSDGDRIGVIAKRSGDFEVVRYTAADRDAAQPMFRLTDEEADALAQILGA | 0.0786

Row | Sequence | soluble fraction (log2)
27 | HMNKLKALREEQGLSMMEIAKQLNMPYTTYVNYEKGTREPNSEMLIKFSKFFNVTIDYLIGNSEQKN | -0.502
28 | HMDFDLIAIFEEQFARALSPIEINIIKEWKNSNYSDDMIVKALKEAVKSQVFNFRYIERILINWSQNG | -0.387
29 | HMQLTPAQHAILAHALEHSDGKIVWFPDNIKGGARKKVLDGLLNRALITTDGTDWFVAAEGYDAMGR | -0.227
30 | HMGSVHDAATDRIREMILGGQFEPGERLRQDDLATSLGVSTMPVREALRQLQAEGLVVFYPRKGAVVAR | 0.142
31 | HMGQELTPVERTALDIAARDGKVSTRILAQEAGIGLRTASKTLAALAERGLLTWHGTSRRDPQQHYTS | 0.00201
32 | HMPDVAIMNVSVEPEKKVVRLQVKAISLEALLDFSTRLEAIPARVELQNHTPSKELSQKWAVNATLIVIY | 0.146
33 | HMESGNLIFTNAPIADVVNAIETRYGKKLQASNQTSDLQFTGIFKNTDEFSTVVKTIEIALGLQFEV | -1.19
34 | HMDVPNLVGEEIKDVRRTLRHFQLEVIGEGSKIVSQVPKHGQRLPENTTIRVYLN | 0.155
35 | HMEQVLDEEIIKSAVQKVIKDNPSAVSDYKAGKKTAFQFLIGKAMAELQGKGHPGKISELLEKE | 0.439
36 | HMEQTMNDMLKLVDLLPQNQQDIVRMRFYENMSFKEIAESNQISINTALGRMRYAILNLRKYAAERNL | -2.35
37 | HMTKGVWHTVKKGENLYRISLYYEVPQQEIKKANKIETENIVVGQKLFIPNTTKKSPIFALTP | -1.49
38 | HMHDRRSGKVKWYSDRKGYGFIDLDGGEVFIHRSALIAFGALRLQAEDIITITVRETDRGLVVDQLFGIER | -2.03
39 | HMANPEFAGYINGKPYFGPTHQHRGVKMLGATHTRNPHPLVWDSIAESLANYDSRFRWSGGQIL | -0.429
40 | HMETLKLRDSGKEVQSLQELLQRQGLSAPMNGIFDEATKSSVIAFQKANGLDADGIVGYKSWETLFTAG | 0.132
41 | HMSDAGAIEPTIKEILASNPKAVEEYLAGNIKNINALIGQSMKALHGKADPQTVRNLLAKLLDEM | -0.219
42 | HMLKDGPIGAYADSVIRDIIEKMERFSKEHINVDMLKIHEKIMLIDEPIIRMALLDEFHRVSHDN | -2.09
43 | HMSDNLTIVRAVYSGLSQRQAAATYHVSRNTVSLLLRHARNRGWLTLEDLAQLDNAAFSKSL | -4.13
44 | HMEEGKVKRMAMDMVDAFYDKVSAMVDDNNDLGRSVVDAWDDEEENPPEYMLDDETRAILVNAGKIEPE | 0.0748
45 | HMLDSPHDDLNRKIVQMLQNDGRLPYKDIAEVLSVSEGTVRNRVQRMRDAGMLNIVALIDPMAI | 0.158
46 | HMVSTEDEISDKLLLDFALEKLSENEKQIVKLRYYNSLTQSKTAEILNMTQVQVSRSEKKILAKLRGII | -0.267
47 | HMGEGTAVGKALKFLAAQGKKFAPELLDMAGSLTGVEALSKLGDAIKGDPELSELDKRILLAELETDAV | -0.0713
48 | HMDVDKQLDQLLAAMIPDKSLRQTIKTKAFNELVDNELADKDISSWTKQTMDVFMTRAEDMFGAM | -0.136
49 | HMKKYIEIYNYYKQLIESEQLKSGDKMPSVRKATKIFNVSKTTVQNAYFDLQADGYIIAAPKSGYYVTEM | -0.295
50 | HMIHANGLTDRQEMILEFIRSYISENNYPPSVREIGKGVGLASSASVHNNMKKLASLGFLNWDTD | -1.25
51 | HMRRTEKEIEQDVMRAIATIISEKGISSVTIKEVSNLSKTDVIVLERRFKNDEGLIKAYTSQ | -0.166
